Data reported in patent publication US20220073643A1 (NANJING GENSCRIPT BIOTECH, published 2022).
Numbering of substitutions follows the chain as printed.

B1: 424G9G3 (antibody, V domains shown)
VH: QVQLQQSGPEVVRPGASVKMSCKGSGYTLNNFWMHWVKQRPGQGLEWIGMIDTSNGETRLNQIFKDKATLTVDKSSKTAYMQLSSLTSEDSAVYYCAPYGNFADWGQGTTLTVSS
VL: DVLLTQTPLSLPVSLGDQASISCRSSQSIVYGNGNTYLEWYLQKPGQSPKLLIYKVSSRFSGVPDRFSGSGSGTDFTLKITKVEAEDLGVYYCFQGSHVPFTFGSGTKLEIK
B2: 418D2F9 (antibody, V domains shown)
VH: DVQLVESGGGLVQPGGSRKLSCAASGFTFSSFGMHWVRQAPEKGLEWVAYINTGSSTIYYADTVKGRFTISRDNPKNTLFLQMTSLRSEDTAMYYCARIYYGNSFVYWGQGTLVTVSA
VL: DIVMTQSPSSLTVTAGEKVTMSCKSSQSLLNSGNQKNYLTWYQQKPGQPPKLLIYWASTRESGVPDRFTGSGSGTDFTLTISSVQAEDLAVYYCQNDYSYPLTFGAGTKLELK
B3: 420G10G3 (antibody, V domains shown)
VH: DVQLVESGGGLVQPGGSRKLSCAASGFTFSGFGMHWIRQTAEKGLEWVAYISSGSRPIYYADTVQGRFTISRDNPKNTLFLQMTSLRSEDTAMYFCARFYYGNSFDHWGQGTLVTVSA
VL: B2 VL with S10F, V91L, D97A, Y100F
B4: 420H7E6 (antibody, V domains shown)
VH: DVQLVESGGGLVQPGGSRKLSCVTSGFTFSSFGMHWIRQAPEKGLEWVAFISGGGSPIFYADSVKGRFTVSRDNPKNTLFLQMTGLRSEDTAMYFCARFYFGNSFAYWGQGTLVTVSA
VL: B2 VL with T5A, S22N, K24R, L30F, D66V, N96T, D97G, Y98F, A106P
B5: 420D5H5 (antibody, V domains shown)
VH: B3 VH with F29L, A41P, A61V, Q65E, A118S
VL: B2 VL with S10F, S82R, S83G, V91L, D97A, Y100F
B6: 425C6D3 (antibody, V domains shown)
VH: B3 VH with A41P, A118S
VL: B2 VL with S10F, V91L, D97A, Y100F
B7: 419A10D4 (antibody, V domains shown)
VH: B3 VH with A41P, Q65K
VL: B2 VL with S10F, K36R, I81V, V91L, D97A, Y100F
B8: 419A5F3 (antibody, V domains shown)
VH: B3 VH with A41P, G54D, Q65K, A97G
VL: B2 VL with S10F, M21L, K24R, K36R, L89R, V91L, D97A, Y100F, A106T, K113R
B9: 419B5G9 (antibody, V domains shown)
VH: B2 VH with S31T, N52S, T53G, S56T, Y59F, L86V, I99F, V106A, Q110P, A118T
VL: B2 VL with L52M, D97A
B10: 423C10E1 (antibody, V domains shown)
VH: B4 VH with I37V
VL: B2 VL with S22N, K24R, L30F, P49S, D66V, N96T, D97S, Y98F, S99N, A106P
B11: 426H6E11 (antibody, V domains shown)
VH: B3 VH with A41P, A118S
VL: B2 VL with S7F, S10F, S28T, V91L, D97A, Y100F, K109N
B12: 213B10A4 (antibody, V domains shown)
VH: QAYVQQSGAELVRSGASVKMSCRASGYTFTSYNMHWVKQTPGQGLEWIGYIYPGNGGTYYNQKFKGKATLTADTSSSTAYMQISSLTSEDSAVYFCATGRGFAYWGQGTLVTVSA
VL: B2 VL with W56R, S73F
B13: 203A6D5 (antibody, V domains shown)
VH: QVQLKQSGPGLVQPSQSLSITCTVSGFSLTRYGVHWVRQSPGKGLEWLGVIWSGGNTDYNAAFISRLNIRKDNSKSQVFFKMNSLKPNDTAIYYCARAAYFGNSFDYWGQGTTLTVSS
VL: B2 VL with T12P, E61D, D97N, S99I
B14: 429H6C5 (antibody, V domains shown)
VH: B2 VH with G44E, N52S, T53S, D62H, Q82R, R87G, A97V, I99F, Y107N
VL: B2 VL with V13A, L52M, T69A, D97A, S99I, K109R
B15: 420F12G8 (antibody, V domains shown)
VH: B3 VH with T28A, A41P, Q65K, A97V
VL: B2 VL with S10F, S22T, K24R, S28N, Y55S, A86P, V91L, D97A, Y100F, L102F
B16: 423B2B5 (antibody, V domains shown)
VH: B2 VH with N52S, T53S, T57P, A61S, T84S, Y95F, V106D, Y107H
VL: B2 VL with S22N
B17: 420H3H9 (antibody, V domains shown)
VH: B2 VH with N52S, T53S, D62H, T63S, R87G, I99F, V106A
VL: B2 VL with M21L, L52M, V91D, D97A, S99T, K109R
B18: 429G4E9 (antibody, V domains shown)
VH: B2 VH with N52S, T53S, T57P, Y95F, R98T, I99F, V106A
VL: B2 VL with S28T, P46S, D97A, L102V, A106S, L110V
B19: 430B3F1 (antibody, V domains shown)
VH: B3 VH with A41P, S55G, V116I, A118S
VL: B2 VL with S10F, V91L, D97A, Y100F
B20: 421H4G3 (antibody, V domains shown)
VH: B3 VH with T28S, M34L, A41P, Q65K, Y101F, A118T
VL: B2 VL with S10F, K24R, K36R, S82N, V91L, D97A, Y100F
B21: 207F8G5 (antibody, V domains shown)
VH: QAYLQQSGAELVRSGASVKMSCKASGFTFTSYNIHWVKQTPGQGLEWIGYISPGNGGSNYNLKFKDKATLTSATSSSTAYMQISSLTSEDSAVYFCATGRGFAYWGQGTLVTVSA
VL: B2 VL with A15P, L30F, T40I, W56R, E61D, S83N, V91I
B22: 418G6A5 (antibody, V domains shown)
VH: B2 VH with A23V, N52S, T53S, T57P, I58M, Y95F, V106A
VL: B2 VL with D97A
B23: 425B3D5 (antibody, V domains shown)
VH: B3 VH with A41P, A118S
VL: B2 VL with S10F, V91L, D97A, Y100F
B24: 422F4B6 (antibody, V domains shown)
VH: B2 VH with T28S, N52S, T53S, T57P, T69I, Y95F, V106A
VL: B2 VL with S28T, D97A, A106S
B25: 182D10F1 (antibody, V domains shown)
VH: B12 VH with V4L, R23K, T30S, Y59N, A97L, A103T
VL: B2 VL with S22N, L30F, W56R, A106V
B26: 426D9F6 (antibody, V domains shown)
VH: B3 VH with A41P, Q65K
VL: B2 VL with S10F, K36R, I81V, V91L, D97A, Y100F
B27: 422E8F9 (antibody, V domains shown)
VH: B3 VH with A41P, A118S
VL: B2 VL with S10F, V91L, D97A, Y100F

Biological target: human Claudin18.2 (human)
Assay: cell-based or functional assay

Point of comparison: B13, “CDC % Relative activity” value 571%. Against it:
- B1 — lower, 9.38%
- B2 — lower, 236%
- B3 — lower, 72.4%
- B4 — lower, 48.8%
- B5 — lower, 78.3%
- B6 — lower, 96.6%
- B7 — lower, 91.5%
- B8 — lower, 61.7%
- B9 — lower, 349%
- B10 — lower, 56.2%
- B11 — lower, 80%
- B12 — lower, 121%
- B14 — lower, 331%
- B15 — lower, 52.6%
- B16 — lower, 6.38%
- B17 — lower, 458%
- B18 — lower, 164%
- B19 — lower, 70.2%
- B20 — lower, 65.9%
- B21 — higher, 627%
- B22 — lower, 207%
- B23 — lower, 63%
- B24 — lower, 31.6%
- B25 — lower, 195%
- B26 — lower, 32.4%
- B27 — lower, 89.2%

Point of comparison: B27, “CDC EC50” value 2.14 µg/mL. Against it:
- B1 — 9.5-fold higher, 20.3 µg/mL
- B2 — 2.9-fold lower, 0.73 µg/mL
- B3 — within 1.5-fold, 2.63 µg/mL
- B4 — 1.8-fold higher, 3.9 µg/mL
- B5 — within 1.5-fold, 2.2 µg/mL
- B6 — within 1.5-fold, 2.08 µg/mL
- B7 — within 1.5-fold, 1.88 µg/mL
- B8 — within 1.5-fold, 2.79 µg/mL
- B9 — 4.3-fold lower, 0.494 µg/mL
- B10 — 1.6-fold higher, 3.39 µg/mL
- B11 — within 1.5-fold, 2.51 µg/mL
- B12 — within 1.5-fold, 1.59 µg/mL
- B13 — 6.4-fold lower, 0.336 µg/mL
- B14 — 3.5-fold lower, 0.607 µg/mL
- B15 — 1.5-fold higher, 3.27 µg/mL
- B16 — 14-fold higher, 29.9 µg/mL
- B17 — 5.1-fold lower, 0.416 µg/mL
- B18 — 1.7-fold lower, 1.23 µg/mL
- B19 — within 1.5-fold, 2.87 µg/mL
- B20 — within 1.5-fold, 2.89 µg/mL
- B21 — 7-fold lower, 0.305 µg/mL
- B22 — 2.6-fold lower, 0.83 µg/mL
- B23 — within 1.5-fold, 3.02 µg/mL
- B24 — 2.8-fold higher, 6.03 µg/mL
- B25 — 2.6-fold lower, 0.811 µg/mL
- B26 — 2.9-fold higher, 6.21 µg/mL
